# Source: paper PMC9629070 (Autophagy, 2022)
# T1: GST-ATG6 (Arabidopsis thaliana, UniProt Q9M367 1-517)
# T1 sequence (looked up): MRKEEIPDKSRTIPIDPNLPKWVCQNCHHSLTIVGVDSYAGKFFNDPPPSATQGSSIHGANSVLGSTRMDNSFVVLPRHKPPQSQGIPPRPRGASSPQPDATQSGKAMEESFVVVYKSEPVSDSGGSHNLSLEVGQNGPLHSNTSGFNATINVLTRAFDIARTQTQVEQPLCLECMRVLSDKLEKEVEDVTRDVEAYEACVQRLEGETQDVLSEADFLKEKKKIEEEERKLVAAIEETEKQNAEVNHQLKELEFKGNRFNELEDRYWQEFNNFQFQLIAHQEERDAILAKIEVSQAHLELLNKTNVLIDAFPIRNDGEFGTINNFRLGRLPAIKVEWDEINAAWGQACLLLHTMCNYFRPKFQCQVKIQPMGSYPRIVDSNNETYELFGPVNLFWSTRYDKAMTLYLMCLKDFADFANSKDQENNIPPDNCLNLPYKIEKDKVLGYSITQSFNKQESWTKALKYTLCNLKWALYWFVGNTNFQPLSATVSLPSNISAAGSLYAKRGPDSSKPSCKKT
# How the values were obtained:
# Assay in all cases: pull-down
# GST-ATG6 = molecular target: T1, GST-ATG6
# GAPC2-His = GAPC2-His (Arabidopsis thaliana, UniProt Q9FX54 1-338)
# GAPC1-His = GAPC1-His (Arabidopsis thaliana, UniProt P25858 1-338)
# Sequence of GAPC1-His (P25858 whole entry): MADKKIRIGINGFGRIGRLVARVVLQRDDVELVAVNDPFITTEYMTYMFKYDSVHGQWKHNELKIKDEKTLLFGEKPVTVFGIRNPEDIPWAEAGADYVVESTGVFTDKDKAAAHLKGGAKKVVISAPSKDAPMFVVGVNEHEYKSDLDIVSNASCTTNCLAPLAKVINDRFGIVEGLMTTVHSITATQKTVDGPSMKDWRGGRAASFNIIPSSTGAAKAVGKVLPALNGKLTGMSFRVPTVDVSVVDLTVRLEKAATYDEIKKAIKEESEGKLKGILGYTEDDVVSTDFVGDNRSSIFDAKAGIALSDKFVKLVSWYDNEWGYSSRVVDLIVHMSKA
# Sequence of GAPC2-His (Q9FX54 whole entry): as the sequence (P25858 whole entry) above, with N61H, I65V, E68D, A92G, Y98F, A227S, L274M counted along it
binding result (GST-ATG6),binding result (GAPC2-His),binding result (GAPC1-His),Binder
binds,,,"PGK3-His (natural protein, Arabidopsis thaliana, UniProt Q9SAJ4 1-401, looked up) MATKRSVGTLKEADLKGKSVFVRVDLNVPLDDNSNITDDTRIRAAVPTIKYLMGNGSRVVLCSHLGRPKGVTPKYSLKPLVPRLSELLGVEVVMANDSIGEEVQKLVAGLPEGGVLLLENVRFYAEEEKNDPEFAKKLAALADVYVNDAFGTAHRAHASTEGVAKFLKPSVAGFLMQKELDYLVGAVANPKKPFAAIVGGSKVSTKIGVIESLLNTVDILLLGGGMIFTFYKAQGLSVGSSLVEEDKLDLAKSLMEKAKAKGVSLLLPTDVVIADKFAPDANSKIVPATAIPDGWMGLDIGPDSIKTFSEALDTTKTIIWNGPMGVFEFDKFAAGTEAVAKQLAELSGKGVTTIIGGGDSVAAVEKVGLADKMSHISTGGGASLELLEGKPLPGVLALDEA"
,binds,binds,"GST-ATG3 (natural protein, Arabidopsis thaliana, UniProt Q0WWQ1 1-313, looked up) MVLSQKLHEAFKGTVERITGPRTISAFKEKGVLSVSEFVLAGDNLVSKCPTWSWESGDASKRKPYLPSDKQFLITRNVPCLRRAASVAEDYEAAGGEVLVDDEDNDGWLATHGKPKDKGKEEDNLPSMDALDINEKNTIQSIPTYFGGEEDDDIPDMEEFDEADNVVENDPATLQSTYLVAHEPDDDNILRTRTYDLSITYDKYYQTPRVWLTGYDESRMLLQPELVMEDVSQDHARKTVTIEDHPHLPGKHASVHPCRHGAVMKKIIDVLMSRGVEPEVDKYLFLFLKFMASVIPTIEYDYTMDFDLGSSST"
